Data reported in patent publication US20170022287A1.
Changes are numbered by the printed parent chain. One block for each binder: values may come before it.

Assays:
CRD1-3 [1] = assay: ELISA, coated CD137-Fc protein 2 µg/mL, antibody 10 or 5 µg/mL, absorbance 620 nm; Non (uncoated well) 0.065
CRD1-3 [2] = assay: ELISA, coated CD137-Fc protein 2 µg/mL, antibody 10 or 5 µg/mL; absorbance 620 nm divided by that of the uncoated well
[3] = target: full-length human CD137-Fc fusion protein (human); assay: ELISA, coated CD137-Fc protein 2 µg/mL, antibody 10 or 5 µg/mL, absorbance 620 nm; Non (uncoated well) 0.202
Chain of full-length human CD137-Fc fusion protein (human) (chain, as listed by the source limits assumed): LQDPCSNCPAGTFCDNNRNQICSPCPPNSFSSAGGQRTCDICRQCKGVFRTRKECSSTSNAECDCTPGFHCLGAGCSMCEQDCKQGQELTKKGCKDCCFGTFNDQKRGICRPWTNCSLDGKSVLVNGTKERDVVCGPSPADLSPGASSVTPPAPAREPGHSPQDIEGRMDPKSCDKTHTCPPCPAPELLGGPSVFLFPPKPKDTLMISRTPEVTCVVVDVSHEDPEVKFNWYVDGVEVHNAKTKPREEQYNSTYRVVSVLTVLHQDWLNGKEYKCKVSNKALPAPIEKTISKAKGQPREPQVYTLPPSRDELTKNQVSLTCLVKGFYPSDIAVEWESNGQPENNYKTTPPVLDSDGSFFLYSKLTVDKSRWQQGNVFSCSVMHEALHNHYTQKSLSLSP

[4] = target: full-length human CD137-Fc fusion protein (human); assay: ELISA, coated CD137-Fc protein 2 µg/mL, antibody 10 or 5 µg/mL; absorbance 620 nm divided by that of the uncoated well
CRD1-2 [5] = assay: ELISA, coated CD137-Fc protein 2 µg/mL, antibody 10 or 5 µg/mL, absorbance 620 nm; Non (uncoated well) 1.146
Chain of CRD1-2 (chain, as listed by the source limits assumed): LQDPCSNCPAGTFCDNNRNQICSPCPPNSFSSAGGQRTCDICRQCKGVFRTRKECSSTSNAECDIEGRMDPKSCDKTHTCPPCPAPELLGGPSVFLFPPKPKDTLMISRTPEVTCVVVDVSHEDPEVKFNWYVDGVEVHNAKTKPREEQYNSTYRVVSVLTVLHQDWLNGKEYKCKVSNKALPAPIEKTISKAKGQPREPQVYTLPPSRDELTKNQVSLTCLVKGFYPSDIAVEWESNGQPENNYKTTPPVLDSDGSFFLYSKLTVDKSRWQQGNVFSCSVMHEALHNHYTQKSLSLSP

CRD1-3 [6] = assay: as above
CRD1 [7] = assay: as above
Chain of CRD1 (chain, as listed by the source limits assumed): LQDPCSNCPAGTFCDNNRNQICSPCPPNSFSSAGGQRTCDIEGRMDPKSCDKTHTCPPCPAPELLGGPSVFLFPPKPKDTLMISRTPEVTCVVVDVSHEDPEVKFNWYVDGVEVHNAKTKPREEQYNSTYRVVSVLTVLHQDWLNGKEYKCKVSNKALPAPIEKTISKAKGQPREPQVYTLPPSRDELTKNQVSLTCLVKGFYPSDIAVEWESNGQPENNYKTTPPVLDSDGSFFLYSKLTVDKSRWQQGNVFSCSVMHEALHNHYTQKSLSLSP

CRD2-3 [8] = assay: as above
Chain of CRD2-3 (chain, as listed by the source limits assumed): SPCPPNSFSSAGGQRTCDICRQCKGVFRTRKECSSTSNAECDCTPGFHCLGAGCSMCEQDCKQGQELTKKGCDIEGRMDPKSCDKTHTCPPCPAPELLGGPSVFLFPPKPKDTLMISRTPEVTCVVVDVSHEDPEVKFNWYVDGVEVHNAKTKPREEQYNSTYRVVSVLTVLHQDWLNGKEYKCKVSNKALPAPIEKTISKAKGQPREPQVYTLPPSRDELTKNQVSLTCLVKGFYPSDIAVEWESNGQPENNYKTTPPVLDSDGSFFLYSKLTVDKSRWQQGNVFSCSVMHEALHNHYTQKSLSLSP

CRD2-4 [9] = assay: as above
Chain of CRD2-4 (chain, as listed by the source limits assumed): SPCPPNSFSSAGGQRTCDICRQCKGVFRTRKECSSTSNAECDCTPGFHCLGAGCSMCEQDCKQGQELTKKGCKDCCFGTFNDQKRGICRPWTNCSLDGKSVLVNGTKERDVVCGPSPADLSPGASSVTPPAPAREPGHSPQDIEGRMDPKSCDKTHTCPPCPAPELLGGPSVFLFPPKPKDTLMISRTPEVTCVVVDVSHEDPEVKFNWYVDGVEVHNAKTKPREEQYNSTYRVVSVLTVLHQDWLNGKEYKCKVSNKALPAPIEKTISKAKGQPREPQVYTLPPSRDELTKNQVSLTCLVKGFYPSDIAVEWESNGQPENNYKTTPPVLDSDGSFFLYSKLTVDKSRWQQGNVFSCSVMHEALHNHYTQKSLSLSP

CRD3-4 [10] = assay: as above
Chain of CRD3-4 (chain, as listed by the source limits assumed): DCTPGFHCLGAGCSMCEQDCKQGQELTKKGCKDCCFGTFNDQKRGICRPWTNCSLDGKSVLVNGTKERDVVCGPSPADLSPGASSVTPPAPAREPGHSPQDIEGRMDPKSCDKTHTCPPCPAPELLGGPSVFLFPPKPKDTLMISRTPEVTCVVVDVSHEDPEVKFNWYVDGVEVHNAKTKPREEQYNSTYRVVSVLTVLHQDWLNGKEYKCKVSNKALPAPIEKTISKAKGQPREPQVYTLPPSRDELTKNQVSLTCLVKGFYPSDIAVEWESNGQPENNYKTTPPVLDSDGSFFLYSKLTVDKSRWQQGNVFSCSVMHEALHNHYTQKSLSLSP

CRD1-2 [11] = assay: ELISA, coated CD137-Fc protein 2 µg/mL, antibody 10 or 5 µg/mL; absorbance 620 nm divided by that of the uncoated well
CRD1 [12] = assay: as above
CRD2-3 [13] = assay: as above
CRD2-4 [14] = assay: as above
CRD3-4 [15] = assay: as above
CRD1-2 [16] = assay: ELISA, coated CD137-Fc protein 2 µg/mL, antibody 10 or 5 µg/mL, absorbance 620 nm; Non (uncoated well) 2.2055
CRD1-3 [17] = assay: as above
CRD1 [18] = assay: as above
CRD2-3 [19] = assay: as above
CRD2-4 [20] = assay: as above
CRD3-4 [21] = assay: as above
CRD1-3 [22] = assay: ELISA, coated CD137-Fc protein 2 µg/mL, antibody 10 or 5 µg/mL, absorbance 620 nm; Non (uncoated well) 1.114
CRD2-3 [23] = assay: as above
CRD2-4 [24] = assay: as above
CRD3-4 [25] = assay: as above
[26] = target: full-length human CD137-Fc fusion protein (human); assay: as above
CRD1-2 [27] = assay: ELISA, coated CD137-Fc protein 2 µg/mL, antibody 10 or 5 µg/mL, absorbance 620 nm; Non (uncoated well) 2.0265
CRD1-3 [28] = assay: as above
CRD1 [29] = assay: as above
CRD2-3 [30] = assay: as above
CRD2-4 [31] = assay: as above
CRD3-4 [32] = assay: as above

Chain of CRD1-3 (chain, as listed by the source limits assumed): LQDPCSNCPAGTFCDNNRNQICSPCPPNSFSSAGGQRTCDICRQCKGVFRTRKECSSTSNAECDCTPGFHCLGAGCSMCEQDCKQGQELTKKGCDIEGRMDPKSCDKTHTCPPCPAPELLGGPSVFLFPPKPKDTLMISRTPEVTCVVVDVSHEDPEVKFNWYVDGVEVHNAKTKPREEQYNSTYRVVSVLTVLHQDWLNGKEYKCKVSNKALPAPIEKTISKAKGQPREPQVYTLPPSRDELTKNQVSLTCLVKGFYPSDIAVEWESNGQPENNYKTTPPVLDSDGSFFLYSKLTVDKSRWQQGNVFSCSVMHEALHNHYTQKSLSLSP

ELISA color development level (CRD1-3 [1]): 0.473
Ratio with respect to Non-Coating (CRD1-3 [2]): 7.3
B1: R1 (antibody, V domains shown)
VH: EVQLVQSGAEVKKPGASVKVSCKASGYTFTSYYTHWVRQAPGQGLEWMGIINPSGGSTSYAQKFQGRVTMTRDTSTSTVYMELSSLRSEDTAVYYCARGAPEYSSSSDYWGQGTMVTVSS
VL: QSALTQPASVSGSPGQSITISCTGTSSDVGGYNYVSWYQQHPGKAPKLMIYDVSNRPSGVSNRFSGSKSGNTASLTISGLQAEDEADYYCSSYTSSSTRWVFGGGTKLTVL

ELISA color development level [3]: 0.205
Ratio with respect to Non-Coating [4]: 1
B2: R2 (antibody, V domains shown)
VH: EVQLQESGPGLVKPSETLSLTCTVSGGSISSSSYYWGWIRQPPGKGLEWIGSIHYTGSTYYNPSLKSRVTISVDTSKNQFSLKLSSVTAADTAVYYCARLNPSIAARPGAFDIWGQGTMVTVSS
VL: QSVLTQPPSVSAAPGQKVTISCSGSSSNIANNFVSWFQQLPGTAPKLLIYDNNKRPSGIPDRFSGSKSGTSATLGITGLQTGDEADYYCGTWDRSLSAGVFGGGTKVTVL

ELISA color development level (CRD1-2 [5]): 0.45
ELISA color development level (CRD1-3 [6]): 0.787
ELISA color development level (CRD1 [7]): 0.601
ELISA color development level (CRD2-3 [8]): 0.555
ELISA color development level (CRD2-4 [9]): 0.455
ELISA color development level (CRD3-4 [10]): 0.26
Ratio with respect to Non-Coating (CRD1-2 [11]): 0.4
Ratio with respect to Non-Coating (CRD1-3 [2]): 0.7
Ratio with respect to Non-Coating (CRD1 [12]): 0.5
Ratio with respect to Non-Coating (CRD2-3 [13]): 0.5
Ratio with respect to Non-Coating (CRD2-4 [14]): 0.4
Ratio with respect to Non-Coating (CRD3-4 [15]): 0.2
B3: R13 (antibody, V domains shown)
VH: QVQLVESGGGLVQPGGSLRLSCAASGFTFSYYDIQWVRQAPGKGLEWVSSISPSGQSTYYRREVKGRFTISRDNSKNTLYLQMNSLRAEDTAVYYCARRTGREYGGGWYFDYWGQGTLVTVSS
VL: DIQMTQSPSSLSASVGDRVTITCRASQSISSYLNWYQQKPGKAPKLLIYAASSLQSGVPSRFSGSGSGTDFTLTISSLQPEDFATYYCQQFSRFPLTFGGGTKVEIK

ELISA color development level (CRD1-2 [16]): 1.7
ELISA color development level (CRD1-3 [17]): 2.42
ELISA color development level (CRD1 [18]): 1.64
ELISA color development level (CRD2-3 [19]): 2.72
ELISA color development level (CRD2-4 [20]): 2.21
ELISA color development level (CRD3-4 [21]): 2.76
Ratio with respect to Non-Coating (CRD1-2 [11]): 0.8
Ratio with respect to Non-Coating (CRD1-3 [2]): 1.1
Ratio with respect to Non-Coating (CRD1 [12]): 0.7
Ratio with respect to Non-Coating (CRD2-3 [13]): 1.2
Ratio with respect to Non-Coating (CRD2-4 [14]): 1
Ratio with respect to Non-Coating (CRD3-4 [15]): 1.3
B4: R14 (antibody, V domains shown)
VH: QVQLLESGGGLVQPGGSLRLSCAASGFTFSSYAMSWVRQAPGKGLEWVSAISGSGGSTYYADSVKGRFTISRDNSKNTLYLQMNSLRAEDTAVYYCARDKWYYYPALDYWGQGTLVTVSS
VL: B3 VL with Q89L, F91V, S92Y, F94S

ELISA color development level (CRD1-3 [22]): 2.25
ELISA color development level (CRD2-3 [23]): 2.42
ELISA color development level (CRD2-4 [24]): 2.23
ELISA color development level (CRD3-4 [25]): 2.52
ELISA color development level [26]: 2.09
Ratio with respect to Non-Coating (CRD1-3 [2]): 2
Ratio with respect to Non-Coating (CRD2-3 [13]): 2.2
Ratio with respect to Non-Coating (CRD2-4 [14]): 2
Ratio with respect to Non-Coating (CRD3-4 [15]): 2.3
Ratio with respect to Non-Coating [4]: 1.9
B5: R8 (antibody, V domains shown)
VH: QVQLQESGPGLVKPSETLSLTCAVSGYSISSGYYWGWIRQPPGKGLEWIGSIYHSGSTYYNPSLKSRVTISVDTSKNQFSLKLSSVTAADTAVYYCARQHSFTRYYGYYYFDYWGQGTTVTVSS
VL: B3 VL with Q89L, F91S, S92D, R93S, F94I

ELISA color development level (CRD1-2 [27]): 1.69
ELISA color development level (CRD1-3 [28]): 2.45
ELISA color development level (CRD1 [29]): 1.82
ELISA color development level (CRD2-3 [30]): 2.73
ELISA color development level (CRD2-4 [31]): 2.3
ELISA color development level (CRD3-4 [32]): 2.88
Ratio with respect to Non-Coating (CRD1-2 [11]): 0.8
Ratio with respect to Non-Coating (CRD1-3 [2]): 1.2
Ratio with respect to Non-Coating (CRD1 [12]): 0.9
Ratio with respect to Non-Coating (CRD2-3 [13]): 1.3
Ratio with respect to Non-Coating (CRD2-4 [14]): 1.1
Ratio with respect to Non-Coating (CRD3-4 [15]): 1.4
B6: R11 (antibody, V domains shown)
VH: B4 VH
VL: B3 VL
